The results in this text go back to PMC4156911.

Read-outs that look alike come from different tables or passages of the source.

Data set [1] concerns the target T1, E. coli core RNA polymerase (wild-type) (Escherichia coli, UniProt P0A7Z4;P0A8V2;P0A8T7;P0A800 1-329;1-1342;1-1407;1-91). Description: EMSA.
The target in data set [2] is T1, E. coli core RNA polymerase (wild-type). Description: EMSA. The source holds these as a separate data set. (Mobility shift assays separate free from complexed probe on a gel.)

T1 sequence (P0A7Z4 whole entry, chain 1 of 3): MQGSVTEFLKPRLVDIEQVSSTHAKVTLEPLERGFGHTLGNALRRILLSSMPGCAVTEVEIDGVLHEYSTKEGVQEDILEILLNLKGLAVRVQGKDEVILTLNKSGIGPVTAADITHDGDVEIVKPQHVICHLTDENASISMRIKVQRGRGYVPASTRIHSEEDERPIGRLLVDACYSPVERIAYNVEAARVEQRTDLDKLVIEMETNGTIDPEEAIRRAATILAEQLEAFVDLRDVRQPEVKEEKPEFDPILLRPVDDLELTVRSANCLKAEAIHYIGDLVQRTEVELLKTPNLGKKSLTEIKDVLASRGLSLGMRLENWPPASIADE
T1 sequence (P0A8V2 whole entry, chain 2 of 3): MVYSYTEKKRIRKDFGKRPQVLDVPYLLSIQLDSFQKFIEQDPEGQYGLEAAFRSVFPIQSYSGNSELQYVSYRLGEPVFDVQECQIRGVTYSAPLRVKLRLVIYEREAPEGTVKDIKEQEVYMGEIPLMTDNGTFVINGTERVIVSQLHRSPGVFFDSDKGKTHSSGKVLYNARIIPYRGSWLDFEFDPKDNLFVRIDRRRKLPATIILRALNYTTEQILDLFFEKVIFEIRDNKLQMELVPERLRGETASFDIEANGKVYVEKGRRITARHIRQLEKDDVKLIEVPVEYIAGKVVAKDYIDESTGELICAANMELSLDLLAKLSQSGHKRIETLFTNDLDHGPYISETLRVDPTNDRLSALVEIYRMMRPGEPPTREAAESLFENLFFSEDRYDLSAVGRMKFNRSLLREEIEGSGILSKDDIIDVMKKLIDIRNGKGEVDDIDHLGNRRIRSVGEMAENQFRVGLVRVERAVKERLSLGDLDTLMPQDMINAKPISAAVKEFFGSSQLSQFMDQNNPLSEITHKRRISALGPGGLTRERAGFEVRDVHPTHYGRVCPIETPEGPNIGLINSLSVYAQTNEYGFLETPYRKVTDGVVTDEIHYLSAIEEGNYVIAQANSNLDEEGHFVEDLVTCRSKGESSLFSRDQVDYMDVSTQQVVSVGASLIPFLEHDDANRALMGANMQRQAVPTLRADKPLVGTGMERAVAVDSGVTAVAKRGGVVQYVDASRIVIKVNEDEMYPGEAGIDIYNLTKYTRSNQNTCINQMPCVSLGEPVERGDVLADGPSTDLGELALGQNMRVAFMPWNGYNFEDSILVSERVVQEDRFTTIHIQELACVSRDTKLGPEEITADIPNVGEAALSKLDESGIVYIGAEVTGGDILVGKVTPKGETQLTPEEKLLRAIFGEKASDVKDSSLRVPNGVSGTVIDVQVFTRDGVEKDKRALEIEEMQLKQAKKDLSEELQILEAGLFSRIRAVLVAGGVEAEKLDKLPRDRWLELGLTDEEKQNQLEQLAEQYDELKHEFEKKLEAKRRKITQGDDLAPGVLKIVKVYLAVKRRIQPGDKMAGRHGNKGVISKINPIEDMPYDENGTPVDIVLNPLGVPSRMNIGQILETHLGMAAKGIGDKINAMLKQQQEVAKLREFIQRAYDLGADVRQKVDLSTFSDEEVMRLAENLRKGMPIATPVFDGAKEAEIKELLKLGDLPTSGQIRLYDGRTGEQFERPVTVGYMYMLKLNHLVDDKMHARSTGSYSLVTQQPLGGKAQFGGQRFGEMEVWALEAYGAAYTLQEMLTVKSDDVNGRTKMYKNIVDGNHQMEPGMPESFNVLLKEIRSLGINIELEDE
T1 sequence (P0A800 whole entry, chain 4 of 3): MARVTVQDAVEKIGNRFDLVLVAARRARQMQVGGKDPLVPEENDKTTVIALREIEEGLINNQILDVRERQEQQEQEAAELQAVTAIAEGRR

B1: his pause ePEC scaffold (RNA-7604, tDNA 5420, ntDNA 5069) (mixed)
RNA: UCAUCCGGCGAUGUGUGCU
DNA 1: CTCTGAATCTCTTCCAGCACACATCAGGACGTACTGACC
DNA 2: GGTCAGTACGTCCATTCGATCTTCGGAAGAGATTCAGAG
modifications: pyrrolo-cytosine at RNA nt 5 (Z in the printed sequence)
In the case of B1, in data set [1], the binding result was “binds”.

B2: his pause ePEC scaffold + 8mer asRNA (RNA-6598) (mixed)
RNA 1: UCAUCCGGCGAUGUGUGCU
DNA 1: B1 DNA 1
DNA 2: B1 DNA 2
RNA 2: CCGGAUGA
modifications: pyrrolo-cytosine at RNA nt 5 (Z in the printed sequence)
Regarding B2, in data set [2], the binding result is “binds”.
